Results on 22 substances are retold here after FireProtDB (doi:10.1016/j.jmb.2007.09.088).

The conditions of this data set: Niallia circulans; pH 5; 25 °C; Urea; Fluorescence; Sodium acetate 50mM; transition: 2; reversible: yes; structure 1K85.

Chitinase A1 L578A, P20533, sequence (P20533 whole entry L578A): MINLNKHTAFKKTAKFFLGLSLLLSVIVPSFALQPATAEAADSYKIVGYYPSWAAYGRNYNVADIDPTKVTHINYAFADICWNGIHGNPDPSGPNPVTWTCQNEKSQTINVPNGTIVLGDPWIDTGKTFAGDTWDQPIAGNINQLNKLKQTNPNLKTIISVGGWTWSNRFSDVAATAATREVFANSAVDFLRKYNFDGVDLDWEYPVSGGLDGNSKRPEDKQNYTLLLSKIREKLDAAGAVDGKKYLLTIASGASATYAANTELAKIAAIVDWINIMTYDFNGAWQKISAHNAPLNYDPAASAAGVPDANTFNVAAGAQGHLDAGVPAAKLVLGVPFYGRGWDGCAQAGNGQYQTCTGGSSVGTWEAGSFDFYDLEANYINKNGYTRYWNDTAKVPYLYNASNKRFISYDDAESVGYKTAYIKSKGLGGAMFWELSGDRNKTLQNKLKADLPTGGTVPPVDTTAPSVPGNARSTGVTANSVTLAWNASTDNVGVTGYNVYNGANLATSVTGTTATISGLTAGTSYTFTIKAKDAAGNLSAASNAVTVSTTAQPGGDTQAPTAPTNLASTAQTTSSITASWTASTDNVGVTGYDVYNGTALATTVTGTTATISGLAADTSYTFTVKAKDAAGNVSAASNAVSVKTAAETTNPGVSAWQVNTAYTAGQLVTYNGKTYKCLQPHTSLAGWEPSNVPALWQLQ
Chitinase A1 V624A, P20533, sequence (P20533 whole entry V624A): as the sequence (P20533 whole entry L578A) above, with A578L, V624A counted along it
Chitinase A1 V604A, P20533, sequence (P20533 whole entry V604A): as the sequence (P20533 whole entry L578A) above, with A578L, V604A counted along it
Chitinase A1 Y592L, P20533, sequence (P20533 whole entry Y592L): as the sequence (P20533 whole entry L578A) above, with A578L, Y592L counted along it
Chitinase A1 A626G, P20533, sequence (P20533 whole entry A626G): as the sequence (P20533 whole entry L578A) above, with A578L, A626G counted along it
Chitinase A1 V642A, P20533, sequence (P20533 whole entry V642A): as the sequence (P20533 whole entry L578A) above, with A578L, V642A counted along it
Chitinase A1 V589A, P20533, sequence (P20533 whole entry V589A): as the sequence (P20533 whole entry L578A) above, with A578L, V589A counted along it
Chitinase A1 T602A, P20533, sequence (P20533 whole entry T602A): as the sequence (P20533 whole entry L578A) above, with A578L, T602A counted along it
Chitinase A1 A609G, P20533, sequence (P20533 whole entry A609G): as the sequence (P20533 whole entry L578A) above, with A578L, A609G counted along it
Chitinase A1 F622L, P20533, sequence (P20533 whole entry F622L): as the sequence (P20533 whole entry L578A) above, with A578L, F622L counted along it
Chitinase A1 V640A, P20533, sequence (P20533 whole entry V640A): as the sequence (P20533 whole entry L578A) above, with A578L, V640A counted along it
Chitinase A1 L566A, P20533, sequence (P20533 whole entry L566A): as the sequence (P20533 whole entry L578A) above, with L566A, A578L counted along it
Chitinase A1 Y592F, P20533, sequence (P20533 whole entry Y592F): as the sequence (P20533 whole entry L578A) above, with A578L, Y592F counted along it
Chitinase A1 N596A, P20533, sequence (P20533 whole entry N596A): as the sequence (P20533 whole entry L578A) above, with A578L, N596A counted along it
Chitinase A1 S568A, P20533, sequence (P20533 whole entry S568A): as the sequence (P20533 whole entry L578A) above, with S568A, A578L counted along it
Chitinase A1 Y620F, P20533, sequence (P20533 whole entry Y620F): as the sequence (P20533 whole entry L578A) above, with A578L, Y620F counted along it
Chitinase A1 Y620L, P20533, sequence (P20533 whole entry Y620L): as the sequence (P20533 whole entry L578A) above, with A578L, Y620L counted along it
Chitinase A1 L614A, P20533, sequence (P20533 whole entry L614A): as the sequence (P20533 whole entry L578A) above, with A578L, L614A counted along it
Chitinase A1 I576A, P20533, sequence (P20533 whole entry I576A): as the sequence (P20533 whole entry L578A) above, with I576A, A578L counted along it
Chitinase A1 I611A, P20533, sequence (P20533 whole entry I611A): as the sequence (P20533 whole entry L578A) above, with A578L, I611A counted along it
Chitinase A1 V594A, P20533, sequence (P20533 whole entry V594A): as the sequence (P20533 whole entry L578A) above, with A578L, V594A counted along it
Chitinase A1 S637A, P20533, sequence (P20533 whole entry S637A): as the sequence (P20533 whole entry L578A) above, with A578L, S637A counted along it

Chitinase A1 A609G, P20533: the “ddG of mutation (higher = less stable)” value was found to be 2.33 kcal/mol, the denaturant m value was found to be 1.18 kcal/mol/M, the “denaturant midpoint (higher = more stable)” value (“denaturant midpoint” below) was determined as 4.18 M and the unfolding free energy is 4.37 kcal/mol.

Consider Chitinase A1 L578A, P20533, for which the “ddG of mutation (higher = less stable)” value worked out at 5.54 kcal/mol, the denaturant m value amounted to 1.16 kcal/mol/M, the “denaturant midpoint” value worked out at 1.39 M and the unfolding free energy stood at 1.16 kcal/mol.

Regarding Chitinase A1 Y620F, P20533, the “ddG of mutation (higher = less stable)” value is 1.52 kcal/mol, the denaturant m value was determined as 1.31 kcal/mol/M, the “denaturant midpoint” value turned out to be 4.88 M and the unfolding free energy is 5.18 kcal/mol.

Regarding Chitinase A1 V640A, P20533, the “ddG of mutation (higher = less stable)” value turned out to be 1.66 kcal/mol, the denaturant m value was 1.22 kcal/mol/M, the “denaturant midpoint” value amounted to 4.76 M and the unfolding free energy stood at 5.04 kcal/mol.

With Chitinase A1 V604A, P20533, the “ddG of mutation (higher = less stable)” value came to 1.58 kcal/mol, the denaturant m value is 1.1 kcal/mol/M, the “denaturant midpoint” value turned out to be 4.83 M and the unfolding free energy was determined as 5.12 kcal/mol.

With Chitinase A1 I611A, P20533, the “ddG of mutation (higher = less stable)” value turned out to be 3.63 kcal/mol, the denaturant m value was found to be 1.13 kcal/mol/M, the “denaturant midpoint” value was found to be 3.05 M and the unfolding free energy is 3.07 kcal/mol.

Turning to Chitinase A1 V594A, P20533, the “ddG of mutation (higher = less stable)” value worked out at 4.19 kcal/mol, the denaturant m value was 1.27 kcal/mol/M, the “denaturant midpoint” value is 2.56 M and the unfolding free energy was found to be 2.51 kcal/mol.

Turning to Chitinase A1 L566A, P20533, the “ddG of mutation (higher = less stable)” value was 2.52 kcal/mol, the denaturant m value came out at 1.19 kcal/mol/M, the “denaturant midpoint” value came out at 4.01 M and the unfolding free energy is 4.18 kcal/mol.

Regarding Chitinase A1 S568A, P20533, the “ddG of mutation (higher = less stable)” value is -0.1 kcal/mol, the denaturant m value worked out at 1 kcal/mol/M, the “denaturant midpoint” value was determined as 6.29 M and the unfolding free energy is 6.8 kcal/mol.

In the case of Chitinase A1 V589A, P20533, the “ddG of mutation (higher = less stable)” value stood at 1.77 kcal/mol, the denaturant m value worked out at 1.16 kcal/mol/M, the “denaturant midpoint” value turned out to be 4.66 M and the unfolding free energy was found to be 4.93 kcal/mol.

Consider Chitinase A1 V642A, P20533, for which the “ddG of mutation (higher = less stable)” value was determined as 1.44 kcal/mol, the denaturant m value was determined as 1.15 kcal/mol/M, the “denaturant midpoint” value turned out to be 4.95 M and the unfolding free energy was 5.26 kcal/mol.

Take Chitinase A1 L614A, P20533: the “ddG of mutation (higher = less stable)” value is 5.26 kcal/mol, the denaturant m value stood at 1.13 kcal/mol/M, the “denaturant midpoint” value came to 1.63 M and the unfolding free energy came to 1.44 kcal/mol.

On to Chitinase A1 V624A, P20533, for which the “ddG of mutation (higher = less stable)” value was 4.07 kcal/mol, the denaturant m value was 1.19 kcal/mol/M, the “denaturant midpoint” value is 2.67 M and the unfolding free energy came to 2.63 kcal/mol.

Regarding Chitinase A1 Y592F, P20533, the “ddG of mutation (higher = less stable)” value was 1.77 kcal/mol, the denaturant m value amounted to 1.25 kcal/mol/M, the “denaturant midpoint” value came to 4.66 M and the unfolding free energy was found to be 4.93 kcal/mol.

With Chitinase A1 T602A, P20533, the “ddG of mutation (higher = less stable)” value was -1.49 kcal/mol, the denaturant m value was determined as 0.89 kcal/mol/M, the “denaturant midpoint” value came to 7.49 M and the unfolding free energy came out at 8.19 kcal/mol.

For the substance Chitinase A1 S637A, P20533, the “ddG of mutation (higher = less stable)” value turned out to be 1.42 kcal/mol, the denaturant m value stood at 1.13 kcal/mol/M, the “denaturant midpoint” value was 4.97 M and the unfolding free energy turned out to be 5.28 kcal/mol.

In the case of Chitinase A1 N596A, P20533, the “ddG of mutation (higher = less stable)” value worked out at 1 kcal/mol, the denaturant m value was 0.99 kcal/mol/M, the “denaturant midpoint” value was found to be 5.33 M and the unfolding free energy is 5.7 kcal/mol.

On to Chitinase A1 I576A, P20533, for which the “ddG of mutation (higher = less stable)” value is 3.11 kcal/mol, the denaturant m value was found to be 1.15 kcal/mol/M, the “denaturant midpoint” value was determined as 3.5 M and the unfolding free energy worked out at 3.59 kcal/mol.

As to Chitinase A1 Y620L, P20533, the “ddG of mutation (higher = less stable)” value was determined as 4.38 kcal/mol, the denaturant m value is 1.26 kcal/mol/M, the “denaturant midpoint” value is 2.4 M and the unfolding free energy amounted to 2.32 kcal/mol.

With Chitinase A1 F622L, P20533, the “ddG of mutation (higher = less stable)” value turned out to be 2.5 kcal/mol, the denaturant m value turned out to be 1.08 kcal/mol/M, the “denaturant midpoint” value is 4.03 M and the unfolding free energy amounted to 4.2 kcal/mol.

On to Chitinase A1 Y592L, P20533, for which the “ddG of mutation (higher = less stable)” value is 5.97 kcal/mol, the denaturant m value was 1.46 kcal/mol/M, the “denaturant midpoint” value turned out to be 1.02 M and the unfolding free energy was determined as 0.73 kcal/mol.

As for Chitinase A1 A626G, P20533, the “ddG of mutation (higher = less stable)” value turned out to be 1.88 kcal/mol, the denaturant m value was 1.22 kcal/mol/M, the “denaturant midpoint” value was 4.57 M and the unfolding free energy amounted to 4.82 kcal/mol.
